Laboratory results reported in US20240117018A1.

Legend:
Test in all cases: cell-based or functional assay
[1] = target: HIV-1 Env of pseudovirus 6480.v4.c25 (HIV-1)
[2] = target: HIV-1 Env of pseudovirus T255-34 (HIV-1)
[3] = target: HIV-1 Env of pseudovirus BJOX015000.11.5 (HIV-1)
[4] = target: HIV-1 Env of pseudovirus A07412M1.vrc12 (HIV-1)
[5] = target: HIV-1 Env of pseudovirus 3016.v5.c45 (HIV-1)
[6] = target: HIV-1 Env of pseudovirus 6545.v4.c1 (HIV-1)
[7] = target: HIV-1 Env of pseudovirus BJOX009000.02.4 (HIV-1)
[8] = target: HIV-1 Env of pseudovirus R3265.c06 (HIV-1)
[9] = target: HIV-1 Env of pseudovirus BJOX025000.01.1 (HIV-1)
[10] = target: HIV-1 Env of pseudovirus 235-47 (HIV-1)
[11] = target: HIV-1 Env of pseudovirus 620345.c01 (HIV-1)
[12] = target: HIV-1 Env of pseudovirus X2131_C1_B5 (HIV-1)
[13] = target: HIV-1 Env of pseudovirus C3347.c11 (HIV-1)
[14] = target: HIV-1 Env of pseudovirus T278-50 (HIV-1)
[15] = target: HIV-1 Env of pseudovirus 191084 B7-19 (HIV-1)
[16] = target: HIV-1 Env of pseudovirus 3103.v3.c10 (HIV-1)
[17] = target: HIV-1 Env of pseudovirus C4118.c09 (HIV-1)
[18] = target: HIV-1 Env of pseudovirus P0402_c2_11 (HIV-1)
[19] = target: HIV-1 Env of pseudovirus R1166.c01 (HIV-1)
[20] = target: HIV-1 Env of pseudovirus 0815.v3.c3 (HIV-1)
[21] = target: HIV-1 Env of pseudovirus 3301.v1.c24 (HIV-1)
[22] = target: HIV-1 Env of pseudovirus P1981_C5_3 (HIV-1)
[23] = target: HIV-1 Env of pseudovirus X1254_c3 (HIV-1)
[24] = target: HIV-1 Env of pseudovirus BJOX028000.10.3 (HIV-1)
[25] = target: HIV-1 Env of pseudovirus 9004SS_A3_4 (HIV-1)
[26] = target: HIV-1 Env of pseudovirus R2184.c04 (HIV-1)
[27] = target: HIV-1 Env of pseudovirus 6041.v3.c23 (HIV-1)
[28] = target: HIV-1 Env of pseudovirus 231965.c01 (HIV-1)
[29] = target: HIV-1 Env of pseudovirus 191955_A11 (HIV-1)
[30] = target: HIV-1 Env of pseudovirus 928-28 (HIV-1)
[31] = target: HIV-1 Env of pseudovirus T257-31 (HIV-1)
[32] = target: HIV-1 Env of pseudovirus 211-9 (HIV-1)
[33] = target: HIV-1 Env of pseudovirus 263-8 (HIV-1)
[34] = target: HIV-1 Env of pseudovirus 6540.v4.c1 (HIV-1)
[35] = target: HIV-1 Env of pseudovirus 231966.c02 (HIV-1)
[36] = target: HIV-1 Env of pseudovirus 6952.v1.c20 (HIV-1)

## PGT145 (antibody)
[1]
  IC50 (Titer in TZM.bl cells): > 50 mg/L
  IC80 (Titer in TZM.bl cells): > 50 mg/L
[2]
  IC50 (Titer in TZM.bl cells): > 50 mg/L
  IC80 (Titer in TZM.bl cells): > 50 mg/L
[3]
  IC50 (Titer in TZM.bl cells): > 50 mg/L
  IC80 (Titer in TZM.bl cells): > 50 mg/L
[4]
  IC50 (Titer in TZM.bl cells): 0.002 mg/L
  IC80 (Titer in TZM.bl cells): 0.023 mg/L
[5]
  IC50 (Titer in TZM.bl cells): > 50 mg/L
  IC80 (Titer in TZM.bl cells): > 50 mg/L
[6]
  IC50 (Titer in TZM.bl cells): 0.114 mg/L
  IC80 (Titer in TZM.bl cells): 3.1 mg/L
[7]
  IC50 (Titer in TZM.bl cells): 0.117 mg/L
  IC80 (Titer in TZM.bl cells): 0.745 mg/L
[8]
  IC50 (Titer in TZM.bl cells): 0.037 mg/L
  IC80 (Titer in TZM.bl cells): 0.227 mg/L
[9]
  IC50 (Titer in TZM.bl cells): 6.63 mg/L
  IC80 (Titer in TZM.bl cells): > 50 mg/L
[10]
  IC50 (Titer in TZM.bl cells): 3.21 mg/L
  IC80 (Titer in TZM.bl cells): 36 mg/L
[11]
  IC50 (Titer in TZM.bl cells): 0.241 mg/L
  IC80 (Titer in TZM.bl cells): 19.7 mg/L
[12]
  IC50 (Titer in TZM.bl cells): 0.018 mg/L
  IC80 (Titer in TZM.bl cells): 0.065 mg/L
[13]
  IC50 (Titer in TZM.bl cells): 0.005 mg/L
  IC80 (Titer in TZM.bl cells): 0.044 mg/L
[14]
  IC50 (Titer in TZM.bl cells): 10.3 mg/L
  IC80 (Titer in TZM.bl cells): > 50 mg/L
[15]
  neutralization IC50: 0.028 mg/L
  neutralization IC80: 0.345 mg/L
[16]
  IC50 (Titer in TZM.bl cells): 0.043 mg/L
  IC80 (Titer in TZM.bl cells): 0.164 mg/L
[17]
  IC50 (Titer in TZM.bl cells): < 0.001 mg/L
  IC80 (Titer in TZM.bl cells): 0.004 mg/L
[18]
  IC50 (Titer in TZM.bl cells): 0.009 mg/L
  IC80 (Titer in TZM.bl cells): 0.038 mg/L
[19]
  IC50 (Titer in TZM.bl cells): 2.27 mg/L
  IC80 (Titer in TZM.bl cells): 17.9 mg/L
[20]
  IC50 (Titer in TZM.bl cells): > 50 mg/L
  IC80 (Titer in TZM.bl cells): > 50 mg/L
[21]
  IC50 (Titer in TZM.bl cells): 0.219 mg/L
  IC80 (Titer in TZM.bl cells): 4.22 mg/L
[22]
  IC50 (Titer in TZM.bl cells): 5.41 mg/L
  IC80 (Titer in TZM.bl cells): > 50 mg/L
[23]
  IC50 (Titer in TZM.bl cells): 5.6 mg/L
  IC80 (Titer in TZM.bl cells): > 50 mg/L
[24]
  IC50 (Titer in TZM.bl cells): > 50 mg/L
  IC80 (Titer in TZM.bl cells): > 50 mg/L
[25]
  neutralization IC50: 0.018 mg/L
  neutralization IC80: 0.419 mg/L
[26]
  IC50 (Titer in TZM.bl cells): 0.073 mg/L
  IC80 (Titer in TZM.bl cells): 0.376 mg/L
[27]
  IC50 (Titer in TZM.bl cells): 0.964 mg/L
  IC80 (Titer in TZM.bl cells): > 50 mg/L
[28]
  IC50 (Titer in TZM.bl cells): 0.403 mg/L
  IC80 (Titer in TZM.bl cells): 15 mg/L
[29]
  neutralization IC50: < 0.001 mg/L
  neutralization IC80: < 0.001 mg/L
[30]
  neutralization IC50: > 50 mg/L
  neutralization IC80: > 50 mg/L
[31]
  neutralization IC50: 5.18 mg/L
  neutralization IC80: > 50 mg/L
[32]
  IC50 (Titer in TZM.bl cells): 0.129 mg/L
  IC80 (Titer in TZM.bl cells): 0.923 mg/L
[33]
  neutralization IC50: 32.1 mg/L
  neutralization IC80: > 50 mg/L
[34]
  IC50 (Titer in TZM.bl cells): 0.08 mg/L
  IC80 (Titer in TZM.bl cells): 5.09 mg/L
[35]
  IC50 (Titer in TZM.bl cells): < 0.001 mg/L
  IC80 (Titer in TZM.bl cells): 0.01 mg/L
[36]
  IC50 (Titer in TZM.bl cells): 3.12 mg/L
  IC80 (Titer in TZM.bl cells): > 50 mg/L
